For assay [1], the target named is 6F4, monoclonal anti-L198 antibody. The assay is described as follows: inhibition ELISA; antibody at 0.05 ug/ml pre-incubated with the peptide in solution (4-fold dilutions from 10000 ng/ml), then on a plate coated with L198-BSA peptide; blank reduced OD 405 nm. As to the method:
(§1) 0.5 μg/ml solution of N-terminal neo-epitope peptide L198 (SEQ ID NO:52) conjugated to BSA was prepared by dilution in PBS. 50 μl/well were added to an ELISA half-area 96 well microtiter plate, the plate was sealed with adhesive sealer and incubated over night at 4° C. After discarding the solution, the plates were blocked with protein-free blocking solution (Pierce) (150 μl/well) at room temperature for 90 min with shaking (900 rpm). The blocked plate was washed four times with washing buffer containing 0.28 mM NaH₂PO₄, 2.5 mM Na₂HPO₄, 150 mM NaCl, 0.1% TWEEN®-20 and 0.0075% Kathon CG.
(§2) Serial dilutions of each synthetic ApoE peptide were prepared by 4-fold dilution starting from 10000 ng/ml in 96 well storage plates (30 μl final volume). Each recombinant antibody to be tested was added (30 μl) to the serial dilutions of each of the synthetic ApoE peptides at a final concentration of 0.05 μg/ml per well. Samples were pre-incubated for 45 min at room temperature with shaking (900 rpm).
(§3) The pre-incubated samples were transferred (50 μl/well) to the blocked ELISA plates, and plates were incubated for 10 min at room temperature without shaking. Plates were washed as described above. Alkaline phosphatase conjugated anti-mouse IgG detection antibody (Mabtech, cat. no. 3310-4) was diluted 1:1000 and added to each plate (50 μl/well). The plate was sealed and incubated with shaking (900 rpm) for 45 min at room temperature and subsequently washed as described above. Alkaline phosphatase substrate (50 μl/well) was added to the plate and the optical density was read every 10 min at a wavelength of 405 nm for up to 120 min. The IC50 values were determined from a log inhibitor concentration response curve (FIG. 25).
(ELISA stands for enzyme-linked immunosorbent assay.)

Assay [2] has as its target 36A12, monoclonal anti-A199 antibody. The assay is described as follows: inhibition ELISA; antibody at 0.05 ug/ml pre-incubated with the peptide in solution (4-fold dilutions from 10000 ng/ml), then on a plate coated with A199-BSA peptide; blank reduced OD 405 nm. On the procedure:
(§4) 0.5 μg/ml solution of N-terminal neo-epitope peptide A199 (SEQ ID NO:51) conjugated to BSA was prepared by dilution in PBS. 50 μl/well were added to an ELISA half-area 96 well microtiter plate, the plate was sealed with adhesive sealer and incubated over night at 4° C. After discarding the solution, the plates were blocked with protein-free blocking solution (Pierce) (150 μl/well) at room temperature for 90 min with shaking (900 rpm). The blocked plate was washed four times with washing buffer containing 0.28 mM NaH₂PO₄, 2.5 mM Na₂HPO₄, 150 mM NaCl, 0.1% TWEEN®-20 and 0.0075% Kathon CG.
(§5) Serial dilutions of each synthetic ApoE peptide were prepared by 4-fold dilution starting from 10000 ng/ml in 96 well storage plates (30 μl final volume). Each purified monoclonal antibody to be tested was added (30 μl) to the serial dilutions of each of the synthetic ApoE peptides at a final concentration of 0.05 μg/ml per well. Samples were pre-incubated for 45 min at room temperature with shaking (900 rpm).
as §3, with “29).” for “25).”

Assay [3] concerns the target 38G9, monoclonal anti-A199 antibody. Described as above. On the procedure: as §4, §5
as §3, with “29).” for “25).”

For assay [4], the target named is T1, 7B10, recombinant IgG2c antibody.
T1 construct: also called 7610
The assay is described as follows: inhibition ELISA, second protocol; antibody at 0.05 ug/ml pre-incubated with the peptide in solution (4-fold dilutions from 10000 ng/ml), then on a plate coated with G200-BSA peptide; blank reduced OD 405 nm. As to the method: (§6) […] of each synthetic ApoE peptide, recombinant C-terminal ApoE fragment G200-HIS and full-length ApoE4 were prepared by 4-fold dilution starting from 1000 ng/ml in 96 well storage plates (30 μl final volume). Each recombinant antibody to be tested was added (30 μl) to the serial dilutions of each of the synthetic ApoE peptides, G200-HIS or full-length ApoE4 at a final concentration of 0.05 μg/ml per well. Samples were pre-incubated for 45 min at room temperature with shaking (900 rpm).
as §3, with “for 25” for “for 10”, “every 15” for “every 10”, “(FIG. 17).” for “(FIG. 25).”
(§7) In addition, a second inhibition ELISA with the ApoE peptides conjugated to BSA was run, in which the starting concentration of the antigens in solution was increased 10-fold. i.e. the starting concentration of the N-terminal neo-epitope of synthetic ApoE peptides conjugated to BSA and starting at amino acid L198 (SEQ ID NO:52), A199 (SEQ ID NO:51) or G200 (SEQ ID NO:50), or to BSA-conjugated negative control peptide (SEQ ID NO:53), was 10000 ng/ml. Furthermore, a 4-fold serial dilution of antigen was used, the plates were blocked with protein-free blocking solution (Pierce) for 90 min, the pre-incubated samples were incubated on the coated plates for 10 min (instead of 25 min), and the optical density was read every 10 min (instead of every 15 min). IC50 values were determined from a log inhibitor concentration response curve (FIG. 20).

In assay [5] the target is 7C7, recombinant IgG2c antibody. The description is as above. As to the method:
as §6
as §3, with “for 25” for “for 10”, “every 15” for “every 10”, “(FIG. 17).” for “(FIG. 25).”
as §7

For assay [6], the target named is 17G4, recombinant IgG2c antibody. Described as above. As to the method:
as §6
as §3, with “for 25” for “for 10”, “every 15” for “every 10”, “(FIG. 17).” for “(FIG. 25).”
as §7

For assay [7], the target named is 23D5, recombinant IgG2c antibody. Described as above. On the procedure: as §6
as §3, with “for 25” for “for 10”, “every 15” for “every 10”, “(FIG. 17).” for “(FIG. 25).”
as §7

In assay [8] the target is 28F2, recombinant IgG2c antibody. Described as above. On the procedure: as §6
as §3, with “for 25” for “for 10”, “every 15” for “every 10”, “(FIG. 17).” for “(FIG. 25).”
as §7

The target in assay [9] is 6F4, monoclonal anti-L198 antibody. Kind of assay: inhibition ELISA: antigen in solution varied, antibody 6F4 at 0.05 µg/ml, plate coated with L198-BSA peptide. As to the method: as §1, §2
(§8) The pre-incubated samples were transferred (50 μl/well) to the blocked ELISA plates, and plates were incubated for 10 min at room temperature without shaking. […] Alkaline phosphatase substrate (50 μl/well) was added to the plate and the optical density was read every 10 min at a wavelength of 405 nm for up to 120 min. The IC50 values were determined from a log inhibitor concentration response curve (FIG. 25).

The target of assay [10] is 8B3, monoclonal anti-L198 antibody. The assay is described as follows: inhibition ELISA: antigen in solution varied, antibody 8B3 at 0.05 µg/ml, plate coated with L198-BSA peptide. As to the method: as §1, §2, §8
Assay [11] has as its target 12B1, monoclonal anti-L198 antibody. The assay is described as follows: inhibition ELISA: antigen in solution varied, antibody 12B1 at 0.05 µg/ml, plate coated with L198-BSA peptide. On the procedure:
as §1, §2, §8

For assay [12], the target named is 15F8, monoclonal anti-L198 antibody. The assay is described as follows: inhibition ELISA: antigen in solution varied, antibody 15F8 at 0.05 µg/ml, plate coated with L198-BSA peptide. As to the method:
as §1, §2, §8

In assay [13] the target is 15H11, monoclonal anti-L198 antibody. The assay is described as follows: inhibition ELISA: antigen in solution varied, antibody 15H11 at 0.05 µg/ml, plate coated with L198-BSA peptide. As to the method:
as §1, §2, §8

Assay [14] has as its target T1, 7B10, recombinant IgG2c antibody. Kind of assay: inhibition ELISA; antibody at 0.05 ug/ml pre-incubated with the antigen in solution (3-fold dilutions from 1000 ng/ml), then on a plate coated with G200-BSA peptide; blank reduced OD 405 nm. As to the method: as §6
as §3, with “for 25” for “for 10”, “every 15” for “every 10”, “(FIG. 17).” for “(FIG. 25).”

Assay [15] has as its target 7C7, recombinant IgG2c antibody. The assay is described as above. On the procedure:
as §6
as §3, with “for 25” for “for 10”, “every 15” for “every 10”, “(FIG. 17).” for “(FIG. 25).”

Assay [16] has as its target 17G4, recombinant IgG2c antibody. The assay is described as above. As to the method:
as §6
as §3, with “for 25” for “for 10”, “every 15” for “every 10”, “(FIG. 17).” for “(FIG. 25).”

The target in assay [17] is 23D5, recombinant IgG2c antibody. Described as above. As to the method:
as §6
as §3, with “for 25” for “for 10”, “every 15” for “every 10”, “(FIG. 17).” for “(FIG. 25).”

The target in assay [18] is 28F2, recombinant IgG2c antibody. The description is as above. As to the method: as §6
as §3, with “for 25” for “for 10”, “every 15” for “every 10”, “(FIG. 17).” for “(FIG. 25).”

The target in assay [19] is 63F6, monoclonal anti-A199 antibody. The assay is described as follows: inhibition ELISA; antibody at 0.05 ug/ml pre-incubated with the peptide in solution (4-fold dilutions from 10000 ng/ml), then on a plate coated with A199-BSA peptide; blank reduced OD 405 nm. As to the method:
as §4, §5
as §3, with “29).” for “25).”

Non-standard residues stand in square brackets, D forms with d. No end group written: not given here. Ahx = NCCCCCC(=O)O

The text below walks through data of US20220242939A1 (BIOARCTIC, published 2022).

Sequence of 36A12, monoclonal anti-A199 antibody (VH, as listed by the source, chain 1 of 2): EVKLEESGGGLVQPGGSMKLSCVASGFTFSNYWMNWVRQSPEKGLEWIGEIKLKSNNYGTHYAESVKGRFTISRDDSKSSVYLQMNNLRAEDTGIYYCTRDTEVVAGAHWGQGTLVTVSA
Sequence of 36A12, monoclonal anti-A199 antibody (VL, as listed by the source, chain 2 of 2): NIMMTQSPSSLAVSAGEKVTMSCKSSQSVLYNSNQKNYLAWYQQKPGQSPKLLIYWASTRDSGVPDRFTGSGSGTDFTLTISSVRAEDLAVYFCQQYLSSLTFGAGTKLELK
T1 sequence (VH, as listed by the source, chain 1 of 2): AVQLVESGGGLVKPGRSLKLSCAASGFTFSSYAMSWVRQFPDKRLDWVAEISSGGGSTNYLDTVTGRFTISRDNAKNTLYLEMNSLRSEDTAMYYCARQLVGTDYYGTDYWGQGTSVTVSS
T1 sequence (VL, as listed by the source, chain 2 of 2): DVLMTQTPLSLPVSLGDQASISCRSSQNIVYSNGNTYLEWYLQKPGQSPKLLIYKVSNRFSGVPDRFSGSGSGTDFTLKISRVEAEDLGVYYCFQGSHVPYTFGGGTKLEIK
Sequence of 28F2, recombinant IgG2c antibody (VH, as listed by the source, chain 1 of 2): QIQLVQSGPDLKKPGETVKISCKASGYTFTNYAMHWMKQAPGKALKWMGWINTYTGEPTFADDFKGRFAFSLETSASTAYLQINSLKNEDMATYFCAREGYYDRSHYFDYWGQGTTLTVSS
Sequence of 28F2, recombinant IgG2c antibody (VL, as listed by the source, chain 2 of 2): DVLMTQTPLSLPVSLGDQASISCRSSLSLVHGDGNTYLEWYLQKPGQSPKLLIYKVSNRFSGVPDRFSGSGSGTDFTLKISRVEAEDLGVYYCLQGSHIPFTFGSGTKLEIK
Sequence of 17G4, recombinant IgG2c antibody (VH, as listed by the source, chain 1 of 2): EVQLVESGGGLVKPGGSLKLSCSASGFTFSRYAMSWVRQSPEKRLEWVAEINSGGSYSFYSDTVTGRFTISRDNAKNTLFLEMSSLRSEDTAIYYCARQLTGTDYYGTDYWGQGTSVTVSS
Sequence of 17G4, recombinant IgG2c antibody (VL, as listed by the source, chain 2 of 2): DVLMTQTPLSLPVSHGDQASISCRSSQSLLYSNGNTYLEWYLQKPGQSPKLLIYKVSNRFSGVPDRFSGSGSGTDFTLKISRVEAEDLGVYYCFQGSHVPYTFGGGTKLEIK
Sequence of 7C7, recombinant IgG2c antibody (VH, as listed by the source, chain 1 of 2): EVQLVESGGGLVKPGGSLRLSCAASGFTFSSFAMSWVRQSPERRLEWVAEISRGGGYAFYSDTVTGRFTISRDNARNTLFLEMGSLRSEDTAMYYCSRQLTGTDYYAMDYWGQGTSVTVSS
Sequence of 7C7, recombinant IgG2c antibody (VL, as listed by the source, chain 2 of 2): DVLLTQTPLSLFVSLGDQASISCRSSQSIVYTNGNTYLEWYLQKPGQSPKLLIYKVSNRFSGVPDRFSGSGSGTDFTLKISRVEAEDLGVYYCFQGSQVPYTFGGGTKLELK
Sequence of 38G9, monoclonal anti-A199 antibody (VH, as listed by the source, chain 1 of 2): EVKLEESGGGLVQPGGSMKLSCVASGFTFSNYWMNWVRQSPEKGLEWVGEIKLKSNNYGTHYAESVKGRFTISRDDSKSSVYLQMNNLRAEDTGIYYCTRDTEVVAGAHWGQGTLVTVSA
Sequence of 38G9, monoclonal anti-A199 antibody (VL, as listed by the source, chain 2 of 2): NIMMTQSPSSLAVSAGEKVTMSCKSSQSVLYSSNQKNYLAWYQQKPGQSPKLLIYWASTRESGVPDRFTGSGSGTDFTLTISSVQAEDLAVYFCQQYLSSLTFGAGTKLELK
Sequence of 23D5, recombinant IgG2c antibody (VH, as listed by the source, chain 1 of 2): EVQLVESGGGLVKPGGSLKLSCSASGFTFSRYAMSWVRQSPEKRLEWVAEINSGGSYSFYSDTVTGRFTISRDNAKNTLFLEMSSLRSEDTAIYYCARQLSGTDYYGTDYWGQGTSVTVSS
Sequence of 6F4, monoclonal anti-L198 antibody (VH, as listed by the source, chain 1 of 2): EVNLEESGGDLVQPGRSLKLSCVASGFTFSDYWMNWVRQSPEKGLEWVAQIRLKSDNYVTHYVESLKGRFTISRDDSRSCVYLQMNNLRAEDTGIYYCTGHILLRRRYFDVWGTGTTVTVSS
Sequence of 6F4, monoclonal anti-L198 antibody (VL, as listed by the source, chain 2 of 2): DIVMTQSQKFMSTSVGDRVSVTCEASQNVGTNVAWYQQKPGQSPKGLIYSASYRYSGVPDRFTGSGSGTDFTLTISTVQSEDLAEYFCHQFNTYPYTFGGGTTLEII
Sequence of 63F6, monoclonal anti-A199 antibody (VH, as listed by the source, chain 1 of 2): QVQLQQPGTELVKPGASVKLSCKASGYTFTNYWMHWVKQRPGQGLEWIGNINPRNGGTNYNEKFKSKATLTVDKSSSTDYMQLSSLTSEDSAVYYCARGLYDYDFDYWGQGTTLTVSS
Sequence of 63F6, monoclonal anti-A199 antibody (VL, as listed by the source, chain 2 of 2): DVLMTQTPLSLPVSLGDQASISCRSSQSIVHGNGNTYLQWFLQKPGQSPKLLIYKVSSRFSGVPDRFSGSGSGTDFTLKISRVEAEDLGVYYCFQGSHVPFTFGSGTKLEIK
Sequence of 15F8, monoclonal anti-L198 antibody (VH, as listed by the source, chain 1 of 2): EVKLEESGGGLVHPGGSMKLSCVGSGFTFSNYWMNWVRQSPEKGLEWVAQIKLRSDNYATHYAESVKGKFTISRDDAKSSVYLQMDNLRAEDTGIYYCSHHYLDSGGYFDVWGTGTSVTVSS
Sequence of 15F8, monoclonal anti-L198 antibody (VL, as listed by the source, chain 2 of 2): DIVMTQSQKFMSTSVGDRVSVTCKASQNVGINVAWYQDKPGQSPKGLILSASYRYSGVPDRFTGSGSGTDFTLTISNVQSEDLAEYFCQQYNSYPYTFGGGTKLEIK
Sequence of 12B1, monoclonal anti-L198 antibody (VH, as listed by the source, chain 1 of 2): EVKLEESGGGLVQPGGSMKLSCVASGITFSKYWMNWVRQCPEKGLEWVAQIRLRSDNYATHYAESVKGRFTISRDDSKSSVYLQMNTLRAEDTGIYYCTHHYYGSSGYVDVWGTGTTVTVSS
Sequence of 12B1, monoclonal anti-L198 antibody (VL, as listed by the source, chain 2 of 2): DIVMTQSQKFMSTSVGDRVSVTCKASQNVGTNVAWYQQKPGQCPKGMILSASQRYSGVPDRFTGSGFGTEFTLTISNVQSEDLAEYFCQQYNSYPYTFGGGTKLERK
Sequence of 15H11, monoclonal anti-L198 antibody (VH, as listed by the source, chain 1 of 2): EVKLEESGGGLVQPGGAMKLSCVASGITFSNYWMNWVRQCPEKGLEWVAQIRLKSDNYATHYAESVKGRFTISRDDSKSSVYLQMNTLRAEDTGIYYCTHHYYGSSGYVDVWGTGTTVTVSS
Sequence of 15H11, monoclonal anti-L198 antibody (VL, as listed by the source, chain 2 of 2): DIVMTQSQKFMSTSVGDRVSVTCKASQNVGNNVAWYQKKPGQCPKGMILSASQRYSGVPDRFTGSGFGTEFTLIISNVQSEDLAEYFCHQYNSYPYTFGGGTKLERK
Sequence of 8B3, monoclonal anti-L198 antibody (VH, as listed by the source, chain 1 of 2): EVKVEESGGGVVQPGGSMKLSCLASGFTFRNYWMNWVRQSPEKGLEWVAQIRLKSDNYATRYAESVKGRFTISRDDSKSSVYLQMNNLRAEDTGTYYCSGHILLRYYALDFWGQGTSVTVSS
Sequence of 8B3, monoclonal anti-L198 antibody (VL, as listed by the source, chain 2 of 2): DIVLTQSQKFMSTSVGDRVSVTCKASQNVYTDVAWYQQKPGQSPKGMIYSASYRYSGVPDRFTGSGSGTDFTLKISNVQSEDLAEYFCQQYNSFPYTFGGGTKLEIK

B1: negative control peptide AATVGSLAGQPLQER-Acp-C (SEQ ID NO:53) conjugated to BSA (peptide)
peptide: AATVGSLAGQPLQER[Ahx]C
modifications: not fully specified (residue 17); printed as AATVGSLAGQPLQER-Acp-C; also: C-terminal Cys conjugated to BSA carrier
notes: BSA carrier; also called 192-206 BSA-conjugated peptide
Consider B1, for which the binding result in [1], in assay [2], in assay [3], in [4], in assay [5] and in assay [6] was “no binding (tested: 10000 ng/ml)” in each case. The binding result in assay [7] and in assay [8] was “no binding (tested: 10000 ng/ml)” each time.

B2: L198 N-terminal neo-epitope peptide LAGQPL-Acp-C (SEQ ID NO:52) conjugated to BSA (peptide)
peptide: LAGQPL[Ahx]C
modifications: not fully specified (residue 8); printed as LAGQPL-Acp-C; also: C-terminal Cys conjugated to BSA carrier
notes: BSA carrier; also called L198-BSA peptide
For B2, the IC50 in assay [9] came out at 8.2 ng/mL; in assay [10], 3.1 ng/mL; in assay [11] it was 4.8 ng/mL; in assay [12] it was 6.5 ng/mL; in [13], 4.5 ng/mL. For the same molecule, the binding result is given as “no binding (tested: 1000 ng/ml)” in [14]; “no binding (tested: 1000 ng/ml)” in assay [15]; “no binding (tested: 1000 ng/ml)” in [16]; “no binding (tested: 1000 ng/ml)” in [17]; “no binding (tested: 1000 ng/ml)” in assay [18]; “no binding (tested: 10000 ng/ml)” in assay [2]. Besides, the binding result in assay [3] and in assay [19] was “no binding (tested: 10000 ng/ml)” in each case.

Broadly, the IC50 is the midpoint of a concentration-inhibition curve.
